Data reported in article doi:10.1101/2022.02.28.481274 (bioRxiv, 2022).

T1: NocΔCTD-His6 (Bacillus subtilis, UniProt P37524 1-242)
T1 sequence: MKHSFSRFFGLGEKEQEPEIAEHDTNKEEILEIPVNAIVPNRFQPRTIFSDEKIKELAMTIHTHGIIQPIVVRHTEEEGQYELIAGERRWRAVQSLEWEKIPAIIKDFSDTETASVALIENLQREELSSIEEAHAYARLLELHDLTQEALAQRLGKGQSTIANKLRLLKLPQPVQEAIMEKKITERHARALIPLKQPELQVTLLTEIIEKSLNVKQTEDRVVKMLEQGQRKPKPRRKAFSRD

B1: Bacillus subtilis NocΔCTD-His6 (domain or fragment, UniProt P37524 1-242, looked up)
chain: T1 sequence
B2: 16-bp NBS (dsDNA)
DNA 1: TATTTCCCGGGAAATA
DNA 2: TATTTCCCGGGAAATA

Key:
crystal structure = biological target: the molecule itself; test: crystal structure
NocΔCTD-His6 = biological target: T1, NocΔCTD-His6; test: X-ray crystallography

| Binder | stoichiometry N (crystal structure) | binding result (NocΔCTD-His6) |
| --- | --- | --- |
| B1 | 2 | – |
| B2 | – | binds |
